T1: murine IL-1R1-Fc fusion protein (R&D Systems) (murine, UniProt P13504 20-338, limits assumed)
T1 construct: Bought reagent (R&D Systems), coated on the plate at 3 ug/ml; not shown: Fc part of the bought fusion protein
T1 sequence (looked up): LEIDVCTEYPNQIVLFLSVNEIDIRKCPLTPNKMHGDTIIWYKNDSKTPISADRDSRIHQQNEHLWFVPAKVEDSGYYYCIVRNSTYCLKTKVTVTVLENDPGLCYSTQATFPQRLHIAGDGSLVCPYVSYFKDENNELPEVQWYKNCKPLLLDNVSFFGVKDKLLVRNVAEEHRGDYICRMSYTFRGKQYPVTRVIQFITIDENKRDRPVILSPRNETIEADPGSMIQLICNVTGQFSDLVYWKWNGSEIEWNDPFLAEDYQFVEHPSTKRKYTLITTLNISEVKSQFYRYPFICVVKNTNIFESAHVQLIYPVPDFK

T2: complex of plate-bound murine IL-1R1-Fc and murine IL-1β (murine, UniProt P13504 20-338; P10749 118-269, limits assumed)
T2 construct: Formed in the ELISA well from coated IL-1R1-Fc and titrated IL-1β; It is the partner that captures his6-IL-1RAcP; also called IL-1/IL-1R1 complex; not shown: Fc part of the bought fusion protein
T2 sequence (looked up) 1: T1 sequence (looked up)
T2 sequence (looked up) 2: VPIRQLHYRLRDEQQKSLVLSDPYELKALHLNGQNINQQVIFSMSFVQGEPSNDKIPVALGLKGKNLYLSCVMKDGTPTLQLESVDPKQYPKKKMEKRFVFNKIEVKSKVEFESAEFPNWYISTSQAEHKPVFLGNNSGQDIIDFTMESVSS

B1: murine IL-1β (ligand, UniProt P10749 118-269, looked up)
chain: T2 sequence (looked up) 2
notes: also called mouse IL-1β
B2: murine IL-33 (ligand, UniProt Q8BVZ5 109-266, looked up)
chain: SIQGTSLLTQSPASLSTYNDQSVSFVLENGCYVINVDDSGKDQEQDQVLLRYYESPCPASQSGDGVDGKKLMVNMSPIKDTDIWLHANDKDYSVELQRGDVSPPEQAFFVLHKKSSDFVSFECKNLPGTYIGVKDNQLALVEEKDESCNNIMFKLSKI
notes: also called mouse IL-33
B3: recombinant his6-tagged murine IL-1RAcP (receptor, UniProt Q61730 21-367, looked up)
chain: SERCDDWGLDTMRQIQVFEDEPARIKCPLFEHFLKYNYSTAHSSGLTLIWYWTRQDRDLEEPINFRLPENRISKEKDVLWFRPTLLNDTGNYTCMLRNTTYCSKVAFPLEVVQKDSCFNSAMRFPVHKMYIEHGIHKITCPNVDGYFPSSVKPSVTWYKGCTEIVDFHNVLPEGMNLSFFIPLVSNNGNYTCVVTYPENGRLFHLTRTVTVKVVGSPKDALPPQIYSPNDRVVYEKEPGEELVIPCKVYFSFIMDSHNEVWWTIDGKKPDDVTVDITINESVSYSSTEDETRTQILSIKKVTPEDLRRNYVCHARNTKGEAEQAAKVKQKVIPPRYTVELACGFGAT
notes: Described only as soluble, recombinant and his6-tagged; also called soluble his6-tagged murine IL-1RAcP; his6-tagged IL-1RAcP; not shown: his6 tag

Assay [1] concerns the target T1, murine IL-1R1-Fc fusion protein (R&D …). Briefly: receptor-ligand complex ELISA: IL-1β titrated onto coated IL-1R1-Fc with his6-IL-1RAcP present; the readout is captured his6-IL-1RAcP (ternary complex). As for the experimental part:
(§1) Murine IL-1β or IL-33 was titrated into plates containing soluble his6-tagged murine IL-1RAcP and plate-bound ST2-Fc (FIG. 8A) or IL-1R1-Fc (FIG. 8B). Peroxidase-conjugated anti-his6 was used as a detection antibody. Data is representative of 2 experiments. Data represent the mean+/-SEM of duplicate wells.
(§2) Receptor-ligand complex ELISA: 3 µg/mlmurine ST2-Fc or IL-1R1-Fc fusion proteins (R&D Systems) in PBS were coated overnight onto MaxiSorp plates (Nunc). After washing, plates were incubated with 3 µg/ml recombinant his6-tagged murine IL-1RAcP and increasing concentrations of murine IL-33 or IL-1β in PBS/1% bovine serum albumin/ 0.05% Tween-20® polyoxyethylene sorbitan monolaurate for 1.5 hours. Plates were washed and incubated with anti-his6-peroxidase (Roche Diagnostics) for 1 hour, washed again, developed with TMB Peroxidase substrate (KPL), stopped with […], and read on a plate reader at 450-570 nm.
On the technique in general: An ELISA detects its analyte on a solid surface through an enzyme-linked reagent.

The target in assay [2] is B3. Description: not described (data not shown).
Assay [3] addresses T2, complex of plate-bound murine IL-1R1-Fc …. Description: receptor-ligand complex ELISA: IL-1R1-Fc coated, his6-IL-1RAcP 3 ug/ml in solution, IL-1β titrated, anti-his6-peroxidase detection. The procedure: as §1, §2

For the molecule B1, in assay [1], the binding result is given as “binds”.

Consider B2, for which, in assay [2], the binding result was “no binding”.

For the molecule B3, in assay [3], the binding result is given as “binds”.
